This note sets out measurements from the nanobody polyreactivity screen of Harvey et al. (2022).

A short description of this data set: yeast display, Sf9 membrane polyspecificity reagent, FACS + sequencing; frameworks hold sequencing errors. The method in brief: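 Polyreactivity labels are assigned by the sorting gate from which each nanobody was recovered. The gates were low and high (top ~1%), set on anti-HA fluorescence for expression and streptavidin fluorescence for reagent binding. Before sorting, galactose-induced (36–48 hours) yeast display cells were stained for 1 hour at 4 °C with 10% biotinylated, detergent-solubilized Sf9 membrane reagent.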
For the sequence “QVQLVESVGGLVQAGGSLRLSCAASGITIADNAMGWYRQAPRKERELVAAITSGGSTYYADAVKGRFTISRDNAKNTVYFQLNSLKPEDTGVYYCIVRVRRLFYWARLVAYDYWGQGSQVTVSS”, the “polyreactivity (PSR sort gate)” value was “high polyreactivity”. “QVQLVESVGGLVQAGGSLRLSCAASGLIFASYAMGWYRQAPGKERELVAAISWSGGSTYYADSVKGRFTISRDYAKITVYLQMNSLKPEDTAVYYCAAIRYAYGSLDYWGQGTQVTVSS”: the “polyreactivity (PSR sort gate)” value is on record as “high polyreactivity”. In the case of “QVQLVESVGGLVQAGGSLRLSCAASGRIFAPNAMGRYRQAPGKERELVAAITSRGSRTYYADSVKGRFTISRDIAKNTVYLQMKSLKPEDTAVYYCATPYRAPWGTARNYGLYYYWGQGTQVTVSS” it was “high polyreactivity”; in that of “QVQLVESVGGLVQAGGSLRLSCAASGRIFGYNAMGWYRQAPGKEWELVAGITSVGRTYYADSVNGRFTISRDNAKNTVYLQMNSLKPEDTAVYYCNAASYSLAVTAEFEDMDYWGQGTQVTVSS”, “low polyreactivity”.

In the case of “QVQLVESVGGLVQAGGSLRLSCAASGRIFRKYDMGWYRQAPGKERELVAAISGTGITYYADSVKGRFTISRDNAKNTVYLQMNSLKPEDTAVYYCARGSKPRAWSWAYPSATSIYDYWGQGTQVTVSS”, the “polyreactivity (PSR sort gate)” value is recorded as “low polyreactivity”.

On to “QVQLVESVGGLVQAGGSLRLSCAASGRIFRYYAMGWYRQAPGKERELVAAISISGGRTYYADSVKGRFSISRDNAKNTVYLQMNSLKPEDTAVYYCNADPYWYDRDKKYDYWGQGTQVTVSS”, for which the “polyreactivity (PSR sort gate)” value is given as “high polyreactivity”. On to “QVQLVESVGGLVQAGGSLRLSCAASGRIFYTYAMGWYRPAPGKERELVAAISSRTGSTYYADSVKGRFTISRDNAKNTVYLQMNSLKPEDTAVYYCNAYRLRYGYDYWGQGTQVTVSS”, for which the “polyreactivity (PSR sort gate)” value is “high polyreactivity”. With “QVQLVESVGGLVQAGGSLRLSCAASGRPFKKYAMGCYRQAPGKERALVAAITGSGGSTYYADAVKGRFTSSRDNAKKTVYLQMNSLKPEDTAVYYCAAYAYGVWHSHDGGNYWGQGTQVTVSS”, the “polyreactivity (PSR sort gate)” value is “low polyreactivity”.

For the sequence “QVQLVESVGGLVQAGGSLRLSCAASGRTFARYAMGWERQAPGQERELVAAISRNTGSTYADSVKGRFTISRDNAKNTVSLQMNSLKPEDTAVYYFASSWRGQDPYYRYVGRDYWGQGTQVTVSS”, the “polyreactivity (PSR sort gate)” value is “high polyreactivity”. Take “QVQLVESVGGLVQAGGSLRLSCAASGRTFFKYAMGWYRQAPGKERELVAAITASGGSTYYADSVKGRFTISRDNAKNTVYLQMNSLKPEDTAVYYCAARWRSVFWEYYYWGQGTQVTLSS”: the “polyreactivity (PSR sort gate)” value is reported as “high polyreactivity”. As for “QVQLVESVGGLVQAGGSLRLSCAASGRTFGVYAMGWYRQAPGKERELVAAISRRAGNTYYADSVKGRFTISRDNAKNTVYLQMNSLKPEDTAVYYCAAYFSRQYGYWGLGTQVTVSS”, the “polyreactivity (PSR sort gate)” value is given as “high polyreactivity”. With “QVQLVESVGGLVQAGGSLRLSCAASGRTFLNYAMGWYRQAPGKEREFVAAITWRVGTTYYADSVKGRFTISRDNAKNTVYLQMNSLKPEDTAVYYCNAVTARQSSQGEMDYWGQGTQVTVSS”, the “polyreactivity (PSR sort gate)” value is reported as “high polyreactivity”.

Consider “QVQLVESVGGLVQAGGSLRLSCAASGRTFQYNAMGWYRPAPGKERELVAAISSSGGSTYYADSVKGRFTISRDNAKNTVYLQMNSLKPEDTAVYYCNAYSQSWNFYGDGDYWGQGTQVTVSS”, for which the “polyreactivity (PSR sort gate)” value is listed as “low polyreactivity”. As to “QVQLVESVGGLVQAGGSLRLSCAASGRTFRTYTMGWYRQAPGKERELVAAIRSSGGRTYYADSVKGRFTISRDNAKNTVYLQMNSLKPEDTAVYYCAREYRGALHYYYCGQGTQVTVSS”, the “polyreactivity (PSR sort gate)” value is reported as “high polyreactivity”. With “QVQLVESVGGLVQAGGSLRLSCAASGRTFRYYTMGWYRQAPGKERELVASISWSGGSTYYADSVKGRFTISRDNAKNTVYLQMNSLKPEDTAVYYCNAVYGYRGVTNMDYWGQGTQVTVSS”, the “polyreactivity (PSR sort gate)” value is “high polyreactivity”.

As to “QVQLVESVGGLVQAGGSLRLSCAASGSIFAYNTMGWYRQAPGKERELVAAIRSRGGSTYYADSVKGRFTISRDNAKNTVYIQMNSLKPEDTPVSSCNAVGRARTLGSNTYGYWGQGTQVTVSS”, the “polyreactivity (PSR sort gate)” value was “high polyreactivity”. Consider “QVQLVESVGGLVQAGGSLRLSCAASGSIFDRYAMGWYRQAPGKERELVAAISTGGSTNYADSVKGRFTISRDNAKNTVYLQMNSLKPEDTAVYYCAARYLYRMYYWGQGTQVTVSS”, for which the “polyreactivity (PSR sort gate)” value is reported as “low polyreactivity”. For the sequence “QVQLVESVGGLVQAGGSLRLSCAASGSIFRAYAMGWYRQAPGKERELVAAISRSGDSTYYADSVKGRFTISRDNAKNTVYLQMNSLKPEDTADYYCAAQRKPYVRPSGPYKRRDYWGQGTQVTVSS”, the “polyreactivity (PSR sort gate)” value was “high polyreactivity”. In the case of “QVQLVESVGGLVQAGGSLRLSCAASGSIFRRYAMGWYRQAPGKERELVAGISSGGYTNYADSVKGRFTISRDNAKNTVYLQMNSLKPEDTAVYYCAAKQYRYVRYRPVDYWGQGTQVTVSS” it was “high polyreactivity”. In the case of “QVQLVESVGGLVQAGGSLRLSCAASGSIFTRNTMGWYRQAPGKERELVAAISGGGSSTYYADSVKGRFTISRDNAKNTVYLQMNSLKPEETAVYYCAASLSRNYGYACYEYWGQGTQVTVSS”, the “polyreactivity (PSR sort gate)” value is “high polyreactivity”. As to “QVQLVESVGGLVQAGGSLRLSCAASGSIFVNNAMGWYRQAPGKERELVAAISSRSSRTFYADSVKGRFTISRDNAKNTVYLQINSLKPEDTAVYYCNAVGGRKFGEYDYWGQGTQVTVSS”, the “polyreactivity (PSR sort gate)” value is recorded as “high polyreactivity”.

With “QVQLVESVGGLVQAGGSLRLSCAASGSIFYQYAMGWYRQAPGKERELVAAISRSGGSTYYADSVKGRFTISRDIAKNTVYLQMNSLKPEDTAVYYCAADQKSLRMYYWGQGTQVTVSS”, the “polyreactivity (PSR sort gate)” value was “high polyreactivity”. On to “QVQLVESVGGLVQAGGSLRLSCAASGSNFSVYVMGWYRQAPGKERELVADISRSGGSTYYADSVKGRFTISRDNAKNTVYLQMNSLKPEDTAVYYCAASLYLSWLFEYWGQGTQVTVSS”, for which the “polyreactivity (PSR sort gate)” value is reported as “low polyreactivity”. As for “QVQLVESVGGLVQAGGSLRLSCAASGSTFKYNAMGWYRQAHGKERELVAAISRRGGSTYYADSVKGRFTISRDNAKNTVYLQMNSLKPDETAVYYCAADIIRPVTVDYWGQGTQVTVSS”, the “polyreactivity (PSR sort gate)” value is “high polyreactivity”. Consider “QVQLVESVGGLVQAGGSLRLSCAASGSTFNQYAMGWYRHPPGKERELVAAISWSGGRTYYADSVKGRFTISRDNAKNTVYLQMNSLKPEDTSVYYCNKLTRDGRKEDYWGQGTQVTVSS”, for which the “polyreactivity (PSR sort gate)” value is “high polyreactivity”. Consider “QVQLVESVGGLVQAGGSLRLSCAASGSTFTDYDMGWYRQAPGKERELVADISSGGSTYYADSVKGRFTISRDNAKNTVYLQMNSLKPEDTAVYYCNTDLRLVYRTKGFISWGYDYWGQGTQVTVSS”, for which the “polyreactivity (PSR sort gate)” value was “low polyreactivity”. In the case of “QVQLVESVGGLVQAGGSLRLSCAASGSTFYIYAMRWYRQAPGKERELVARISGSGGSTYYADSVKGRFTISRDNAKNTVYLQMNSLKPEDTAVYYCAADAIYKYYQYYAFPYYRYDYWGLGTQVTVSS”, the “polyreactivity (PSR sort gate)” value is “low polyreactivity”. As to “QVQLVESVGGLVQAGGSLRLSCAASGSTFYSYSMGWYRQEPGKERELVAAISWNGGSTYYADSVKGRFTISRDNAKNTVYFQMNSLKPEVTAVYYCAARGGYPYWRYYRFYKMDYWGQGTQVTVSS”, the “polyreactivity (PSR sort gate)” value is “low polyreactivity”. For the sequence “QVQLVESVGGLVQAGGSLRLSCAASGSTSSYYTMGWYRQAPGKERELVAYADSVKGRFTISRDNAKNTVYLQMNSLKPEDTAVYYCAAPRTYYSELTSPYDYWGQGTQVTVSS”, the “polyreactivity (PSR sort gate)” value is on record as “low polyreactivity”. “QVQLVESVGGLVQAGGSLRLSCAASGTLATYAMGWYRQAHGKERELVAAIRYSDGRTYYADSVKGRFTISRDNAKNTVYLLMNSLKPEDTAVYYCAASFRGRGKKLDYWGQGTQVTVSS”: the “polyreactivity (PSR sort gate)” value is listed as “low polyreactivity”. In the case of “QVQLVESVGGLVQAGGSLRLSCAASGYTFYRYAMGWYRQAPGKESELVAGISRDGGSTYYADSVKGRFTISRDNAKNTVYLQMNSLKPEDTAVYYCAADKTRYRLGRDYWGQGTQVTVSS” it was “low polyreactivity”; in that of “QVQLVESVGGLVQAGGSLRLSCADSGFTIYSYAMGWYRQAPGKERELVAAITQSGGSTYYADSVKGRFTISRDNAKNTVYLQMNSLKPEDTAVYYCAAVIYIDYDYGYYYWGQGTQVTVSS”, “low polyreactivity”; in that of “QVQLVESVGGLVQAGGSLRLSCADSGSTFYFNAMGWYRQAPGKEREFVAAIEWSGGSTYYADSVKGRFTISRDNAKNTVYLQMNSLKPEDTAVYYCAAPYHYYGNSVGYADYDYWGQGTQVTVSS”, “low polyreactivity”. “QVQLVESVGGLVQAGGSLRLSCAGSGFTCGAYAMGWSRQAPRKERELVAAINTRGGSRYYADSVKGRFTISRDNAKNTVYLQMNSLKPEDTAVYYCAASVYFWYDYWGQGTQVTVSS”: the “polyreactivity (PSR sort gate)” value was “high polyreactivity”. Consider “QVQLVESVGGLVQAGGSLRLSCAPSGRIFGKYAMGWYRQAPGKERELVADITWGGGSTNYADSVKGRFTISRDNAKNTVYLQMNSLNPDDTAVYYCATGFYYYLTKTIPYEYEYWGQGTQVTVSS”, for which the “polyreactivity (PSR sort gate)” value was “low polyreactivity”. In the case of “QVQLVESVGGLVQAGGSLRLSCASSVRTFYRYAMGWYRQAPGKERELVAAISRGGRTNYADSVKGRFTISRDNAKNTVYLQMNSLKPEDTAVYYCAVSNYGALYDYWGQGTQVSVSS”, the “polyreactivity (PSR sort gate)” value is “high polyreactivity”. On to “QVQLVESVGGLVQAGGSLRLSCDASGYIFKNYAMGWYIQAPGKERELVAAINWSGGNTYYADSVKGRFTISRDNAKNTVYLQMNSLKPEDTAVYYCNAVSSLRSYGYNYCGQGTQVTVSS”, for which the “polyreactivity (PSR sort gate)” value is listed as “low polyreactivity”. In the case of “QVQLVESVGGLVQAGGSLRLSCPASGSTFTDYAMGWYRQAPGKERELVAANSWSGGSTYYADSVKGRFTISRDNAKNTVYLQMNSLKPEDTAVYYCAFRYHGYDYWGQGTQVTVSS” it was “high polyreactivity”; in that of “QVQLVESVGGLVQAGGSLRLSCSASGRTFSYYTMGWYRQAPGKERELVADINTSVGSTDYADSVKGRFTISRDTAKNTVYLQMNSLKPEDTAVYYCQLIRRGHDYWGQGTQVTVSS”, “high polyreactivity”. In the case of “QVQLVESVGGLVQAGGSLRLSCSASGSIFDYYAMGWYRQAPGKQRELVAAITSGGSTYYADSVKGRFTISRDNAKNTVYLQMNSLNPEDTAVYYCNATYYYWLSYDYWGQGTQVSVSS”, the “polyreactivity (PSR sort gate)” value is “low polyreactivity”.
